Experimental data published in publication PMC10248797, “Ndel1 disfavors dynein–dynactin–adaptor complex formation in two distinct ways” (The Journal of Biological Chemistry, 2023).

B2: Lis1 (in solution) (natural protein, UniProt P43034 1-410, looked up)
chain: MVLSQRQRDELNRAIADYLRSNGYEEAYSVFKKEAELDVNEELDKKYAGLLEKKWTSVIRLQKKVMELESKLNEAKEEFTSGGPLGQKRDPKEWIPRPPEKYALSGHRSPVTRVIFHPVFSVMVSASEDATIKVWDYETGDFERTLKGHTDSVQDISFDHSGKLLASCSADMTIKLWDFQGFECIRTMHGHDHNVSSVAIMPNGDHIVSASRDKTIKMWEVQTGYCVKTFTGHREWVRMVRPNQDGTLIASCSNDQTVRVWVVATKECKAELREHEHVVECISWAPESSYSSISEATGSETKKSGKPGPFLLSGSRDKTIKMWDVSTGMCLMTLVGHDNWVRGVLFHSGGKFILSCADDKTLRVWDYKNKRCMKTLNAHEHFVTSLDFHKTAPYVVTGSVDQTVKVWECR

Experiments:
[1] = target: T1, SNAP-tagged, recombinant full-length human cytoplasmic dynein-1 with all associated accessory chains (human, UniProt Q14204 1-4646; Q13409-3 1-612; O43237 1-492; P63172 1-113; Q9NP97 1-96; P63167 …); assay: pull-down; quantitative depletion assay: 0-600 nM Ndel1 construct coupled to Magne HaloTag beads via the HaloTag; 5 nM dynein in solution, 45 min; binding buffer 30 mM Hepes pH 7.4, 36 mM KCl, 1 mM ADP, 1 mg/ml casein, 0.1% NP-40; supernatant on SDS-PAGE, densitometry; one-site fit with Bmax set to 1; settings: both partners purified
T1 construct: cytoplasmic dynein 1 heavy chain 1 (DHC1), human; dynein intermediate chain 2, isoform 2C (IC2C), human; dynein light intermediate chain 2 (LIC2), human; dynein light chain Tctex1, human; dynein light chain LC8, human; For motility assays the SNAP tag was labelled with TMR or Alexa647; source: Sf9, purified (IgG Sepharose, TEV cleavage, SEC); not shown: His, N-terminal, cleaved; ZZ, N-terminal, …

[2] = target: T1, SNAP-tagged, recombinant full-length …; assay: cell-based or functional assay
[3] = target: T1, SNAP-tagged, recombinant full-length …; assay: pull-down; dynein-Lis1 binding curve (Fig. S4G); one-site fit with Bmax set to 1; who was on the beads is not told for this curve; settings: both partners purified
[4] = target: T2, Lis1 (UniProt P43034 1-410); assay: pull-down; depletion of 5 nM Lis1 from solution by Ndel1 coupled to Magne HaloTag beads; binding buffer with 150 mM KCl; SDS-PAGE densitometry of the supernatant; quadratic binding equation; settings: both partners purified
T2 construct: Lis1; also called ZZ-TEV-Lis1; source: Sf9 cells, purified (IgG Sepharose, TEV cleavage, size-exclusion chromatography); not shown: ZZ, N-terminal, cleaved
T2 sequence (looked up): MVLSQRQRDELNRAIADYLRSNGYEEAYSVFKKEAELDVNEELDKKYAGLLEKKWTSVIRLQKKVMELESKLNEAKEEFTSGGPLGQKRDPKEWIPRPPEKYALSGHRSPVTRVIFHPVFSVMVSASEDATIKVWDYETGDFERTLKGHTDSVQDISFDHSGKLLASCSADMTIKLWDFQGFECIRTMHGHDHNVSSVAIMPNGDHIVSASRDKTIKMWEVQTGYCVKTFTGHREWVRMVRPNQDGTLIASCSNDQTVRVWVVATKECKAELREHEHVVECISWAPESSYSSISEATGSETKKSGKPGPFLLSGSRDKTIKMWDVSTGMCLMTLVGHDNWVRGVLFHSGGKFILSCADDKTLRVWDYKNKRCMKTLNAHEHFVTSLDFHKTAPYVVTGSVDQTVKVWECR

[5] = target: B2; assay: pull-down; quantitative depletion assay: Ndel1 construct on Magne HaloTag beads via the N-terminal HaloTag; 5 nM Lis1 in solution; binding buffer with 150 mM KCl; SDS-PAGE densitometry; quadratic binding equation; settings: both partners purified

B1: Halo-tagged Ndel1 with the C-terminal coiled coil (256-291) deleted, with C-terminal 6X-His tag (natural protein, UniProt Q9GZM8 1-345, looked up)
chain: MDGEDIPDFSSLKEETAYWKELSLKYKQSFQEARDELVEFQEGSRELEAELEAQLVQAEQRNRDLQADNQRLKYEVEALKEKLEHQYAQSYKQVSVLEDDLSQTRAIKEQLHKYVRELEQANDDLERAKRATIVSLEDFEQRLNQAIERNAFLESELDEKESLLVSVQRLKDEARDLRQELAVRERQQEVTRKSAPSSPTLDCEKMDSAVQASLSLPATPVGKGTENTFPSPKAIPNGFGTSPLTPSARISALNINCGVLNGNGTKFSRSGHTSFFDKGAVNGFDPAPPPPGLGSSRPSSAPGMLPLSV
notes: Ndel1 with residues 256-291 deleted; also called Ndel1^ΔCTCC; FL-Ndel1^ΔCTCC; source: Sf9, purified (IgG Sepharose, TEV cleavage, SEC); not shown: ZZ, N-terminal, cleaved; HaloTag, N-terminal, kept; His6, C-terminal, kept
In the case of B1, the Kd [1] is reported as 55 nM.

B2 was tested, and the “landing rate of DDB (smTIRF) with 50 nM Lis1 and 50 nM FL-Ndel1^PM together, against DDB alone” value [2] was about 2 fold reduction.

B3: Halo-Lis1 (natural protein, UniProt P43034 1-410, looked up)
chain: MVLSQRQRDELNRAIADYLRSNGYEEAYSVFKKEAELDVNEELDKKYAGLLEKKWTSVIRLQKKVMELESKLNEAKEEFTSGGPLGQKRDPKEWIPRPPEKYALSGHRSPVTRVIFHPVFSVMVSASEDATIKVWDYETGDFERTLKGHTDSVQDISFDHSGKLLASCSADMTIKLWDFQGFECIRTMHGHDHNVSSVAIMPNGDHIVSASRDKTIKMWEVQTGYCVKTFTGHREWVRMVRPNQDGTLIASCSNDQTVRVWVVATKECKAELREHEHVVECISWAPESSYSSISEATGSETKKSGKPGPFLLSGSRDKTIKMWDVSTGMCLMTLVGHDNWVRGVLFHSGGKFILSCADDKTLRVWDYKNKRCMKTLNAHEHFVTSLDFHKTAPYVVTGSVDQTVKVWECR
notes: Lis1; also called ZZ-TEV-Halo-Lis1; Lis1-conjugated beads; source: Sf9, purified (IgG Sepharose, TEV cleavage, SEC); not shown: ZZ, N-terminal, cleaved; HaloTag, N-terminal, kept
Binder B3 has a Kd [3] of 101 nM.

B4: Full-length Ndel1 with N-terminal HaloTag and C-terminal 6X-His tag (natural protein, UniProt Q9GZM8 1-345, looked up)
chain: MDGEDIPDFSSLKEETAYWKELSLKYKQSFQEARDELVEFQEGSRELEAELEAQLVQAEQRNRDLQADNQRLKYEVEALKEKLEHQYAQSYKQVSVLEDDLSQTRAIKEQLHKYVRELEQANDDLERAKRATIVSLEDFEQRLNQAIERNAFLESELDEKESLLVSVQRLKDEARDLRQELAVRERQQEVTRKSAPSSPTLDCEKMDSAVQASLSLPATPVGKGTENTFPSPKAIPNGFGTSPLTPSARISALNIVGDLLRKVGALESKLAACRNFAKDQASRKSYISGNVNCGVLNGNGTKFSRSGHTSFFDKGAVNGFDPAPPPPGLGSSRPSSAPGMLPLSV
notes: Coupled to Magne HaloTag beads through the HaloTag; also called FL-Ndel1; Halo-Ndel1; source: Sf9 cells, purified (IgG Sepharose, TEV cleavage, size-exclusion chromatography); not shown: ZZ, N-terminal, cleaved; HaloTag, N-terminal, kept; His6, C-terminal, kept
Work on B4 yielded a Kd [4] of 4.6 nM.

B5: Halo-tagged full-length Ndel1 with the four CDK1 sites mutated to aspartic acid (S198D; T219D; S231D; S242D), with C-terminal 6X-His tag (natural protein, UniProt Q9GZM8 1-345, looked up)
chain: MDGEDIPDFSSLKEETAYWKELSLKYKQSFQEARDELVEFQEGSRELEAELEAQLVQAEQRNRDLQADNQRLKYEVEALKEKLEHQYAQSYKQVSVLEDDLSQTRAIKEQLHKYVRELEQANDDLERAKRATIVSLEDFEQRLNQAIERNAFLESELDEKESLLVSVQRLKDEARDLRQELAVRERQQEVTRKSAPSDPTLDCEKMDSAVQASLSLPADPVGKGTENTFPDPKAIPNGFGTDPLTPSARISALNIVGDLLRKVGALESKLAACRNFAKDQASRKSYISGNVNCGVLNGNGTKFSRSGHTSFFDKGAVNGFDPAPPPPGLGSSRPSSAPGMLPLSV
notes: Ndel1 with four phosphomimetic mutations; also called FL-Ndel1^PM; Ndel1^PM; source: Sf9, purified (IgG Sepharose, TEV cleavage, SEC); not shown: ZZ, N-terminal, cleaved; HaloTag, N-terminal, kept; His6, C-terminal, kept
B5 was tested, and the “processive landing rate of DDB (smTIRF) with 50 nM FL-Ndel1^PM, against DDB alone” value [2] was 10 fold reduction and the Kd [5] was about 4 nM.

B6: Full-length phosphomimetic Ndel1 (S198D; T219D; S231D; S242D) with N-terminal HaloTag and C-terminal 6X-His tag (natural protein, UniProt Q9GZM8 1-345, looked up)
chain: MDGEDIPDFSSLKEETAYWKELSLKYKQSFQEARDELVEFQEGSRELEAELEAQLVQAEQRNRDLQADNQRLKYEVEALKEKLEHQYAQSYKQVSVLEDDLSQTRAIKEQLHKYVRELEQANDDLERAKRATIVSLEDFEQRLNQAIERNAFLESELDEKESLLVSVQRLKDEARDLRQELAVRERQQEVTRKSAPSDPTLDCEKMDSAVQASLSLPADPVGKGTENTFPDPKAIPNGFGTDPLTPSARISALNIVGDLLRKVGALESKLAACRNFAKDQASRKSYISGNVNCGVLNGNGTKFSRSGHTSFFDKGAVNGFDPAPPPPGLGSSRPSSAPGMLPLSV
notes: Ndel1 with the four CDK1 sites changed to aspartic acid; also called FL-Ndel1PM; Halo-Ndel1PM; source: Sf9 cells, purified (IgG Sepharose, TEV cleavage, size-exclusion chromatography); not shown: ZZ, N-terminal, cleaved; HaloTag, N-terminal, kept; His6, C-terminal, kept
B6 gave a Kd [4] of 3.9 nM.

B7: Halo-tagged full-length Ndel1 with C-terminal 6X-His tag (natural protein, UniProt Q9GZM8 1-345, looked up)
chain: MDGEDIPDFSSLKEETAYWKELSLKYKQSFQEARDELVEFQEGSRELEAELEAQLVQAEQRNRDLQADNQRLKYEVEALKEKLEHQYAQSYKQVSVLEDDLSQTRAIKEQLHKYVRELEQANDDLERAKRATIVSLEDFEQRLNQAIERNAFLESELDEKESLLVSVQRLKDEARDLRQELAVRERQQEVTRKSAPSSPTLDCEKMDSAVQASLSLPATPVGKGTENTFPSPKAIPNGFGTSPLTPSARISALNIVGDLLRKVGALESKLAACRNFAKDQASRKSYISGNVNCGVLNGNGTKFSRSGHTSFFDKGAVNGFDPAPPPPGLGSSRPSSAPGMLPLSV
notes: Ndel1; 345 residues by the printed range 194-345; also called FL-Ndel1; ZZ-TEV-Halo-Ndel1-His6; source: Sf9, purified (IgG Sepharose, TEV cleavage, SEC); not shown: ZZ, N-terminal, cleaved; HaloTag, N-terminal, kept; His6, C-terminal, kept
In the case of B7, the “landing rate of processive DDB events (smTIRF) with 300 nM FL-Ndel1, against DDB alone” value [2] is reported as about 5 fold reduction, the “processive landing rate of DDB (smTIRF) with 50 nM FL-Ndel1, against DDB alone” value [2] is reported as 1.7 fold reduction and the “velocity of DDB (smTIRF) with 300 nM FL-Ndel1, against DDB alone” value [2] is reported as about 2 fold reduction. It also gave a Kd [5] of about 4 nM and a Kd [1] of about 33 nM.

B8: Halo-tagged Ndel1(1-192), N-terminal coiled coil only, with C-terminal 6X-His tag (domain or fragment, UniProt Q9GZM8 1-192, looked up)
chain: MDGEDIPDFSSLKEETAYWKELSLKYKQSFQEARDELVEFQEGSRELEAELEAQLVQAEQRNRDLQADNQRLKYEVEALKEKLEHQYAQSYKQVSVLEDDLSQTRAIKEQLHKYVRELEQANDDLERAKRATIVSLEDFEQRLNQAIERNAFLESELDEKESLLVSVQRLKDEARDLRQELAVRERQQEVTR
notes: Ndel1 residues 1-192; also called NT-Ndel1; ZZ-TEV-Halo-Ndel1(1-192)-His6; source: Sf9, purified (IgG Sepharose, TEV cleavage, SEC); not shown: ZZ, N-terminal, cleaved; HaloTag, N-terminal, kept; His6, C-terminal, kept
For B8, the “landing rate of processive DDB events (smTIRF) with 300 nM NT-Ndel1, against DDB alone” value [2] was about 2 fold reduction, the “velocity of DDB (smTIRF) with 300 nM NT-Ndel1, against DDB alone” value [2] was about 2 fold reduction and the Kd [5] was about 1.2 nM. For the same binder, the Kd [1] was 79 nM.
